Measurements published in patent publication US20090252727A1 (Eli Lilly, published 2009).

How the values were obtained:
Assay in all cases: competition with [125I]glucagon, SPA, membranes of 293HEK cells expressing the receptor
[1] = target: T1, human glucagon receptor (human, UniProt P47871 27-477)
T1 construct: Cloned receptor expressed in 293HEK cells; also called human GluR; human GlucR

[2] = target: T2, rat glucagon receptor (rat, UniProt P30082 28-485)
T2 construct: Cloned receptor expressed in 293HEK cells; also called rat GluR; rat GlucR

[3] = target: T3, mouse glucagon receptor (mouse, UniProt Q61606 28-485)
T3 construct: Cloned receptor expressed in 293HEK cells; also called murine GluR; mouse GlucR
T3 chain: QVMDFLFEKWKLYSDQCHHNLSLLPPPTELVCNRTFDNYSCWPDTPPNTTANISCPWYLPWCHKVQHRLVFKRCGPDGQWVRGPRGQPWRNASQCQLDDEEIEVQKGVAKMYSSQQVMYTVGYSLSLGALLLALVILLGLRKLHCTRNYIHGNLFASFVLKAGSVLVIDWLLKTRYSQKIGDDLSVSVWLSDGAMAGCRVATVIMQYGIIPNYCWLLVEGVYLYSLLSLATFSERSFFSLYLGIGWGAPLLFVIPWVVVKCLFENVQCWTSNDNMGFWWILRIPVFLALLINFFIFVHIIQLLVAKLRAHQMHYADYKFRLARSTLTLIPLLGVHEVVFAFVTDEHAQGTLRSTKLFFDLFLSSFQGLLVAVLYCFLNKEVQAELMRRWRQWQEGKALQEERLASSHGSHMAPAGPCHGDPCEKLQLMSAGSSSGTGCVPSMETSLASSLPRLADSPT

[4] = target: T4, cynomologous monkey glucagon receptor (cynomologous monkey, UniProt P47871 27-477 (human entry))
T4 construct: Cloned receptor expressed in 293HEK cells; also called cyno GluR; cyno GlucR
T4 chain: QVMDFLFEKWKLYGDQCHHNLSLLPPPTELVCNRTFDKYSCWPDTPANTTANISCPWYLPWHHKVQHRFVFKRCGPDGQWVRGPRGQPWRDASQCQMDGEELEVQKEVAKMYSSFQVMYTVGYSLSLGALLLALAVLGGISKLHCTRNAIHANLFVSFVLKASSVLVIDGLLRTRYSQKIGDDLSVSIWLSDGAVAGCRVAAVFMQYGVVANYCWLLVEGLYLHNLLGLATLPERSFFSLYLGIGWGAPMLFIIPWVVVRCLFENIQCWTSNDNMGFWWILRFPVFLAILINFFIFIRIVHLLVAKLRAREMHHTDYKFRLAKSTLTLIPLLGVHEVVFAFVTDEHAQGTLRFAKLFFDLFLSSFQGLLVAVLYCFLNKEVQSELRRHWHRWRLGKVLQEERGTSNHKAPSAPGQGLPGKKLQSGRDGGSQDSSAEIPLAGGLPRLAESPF

Measured: Ki

B1: Fab fragment of antibody example 1 (Fab, V domains shown)
VH: QVQLQESGPGLVKPSETLSLTCTVSGDDITSGYWDWIRQPPGKGLEWIGYISYSGSTYYSPSLKSRVTISVDTSKNQFSLKLSSVTAADTAVYYCARPPGYYGFGPYALDYWGQGTLVTVSS
VL: DIQMTQSPSSLSASVGDRVTITCSASSSVSYMHWYQQKPGKAPKLLIYTTSNLAHGVPSRFSGSGSGTDFTLTISSLQPEDFATYYCQWRSTLPPTFGGGTKVEIKR
notes: Expressed in E. coli; Fab = VL+CL and VH+CH1 (Fc absent); also called Fab of Ab1; not shown: His tag
< 50 nM: all assays above

B2: Antibody of example 5 (Ab5) (antibody, human IgG4 S228P, kappa, F234A L235A, V domains shown)
VH: QVQLQESGPGLVKPSETLSLTCTVSGDDITSGYHDWIRQPPGKGLEWIGYISYSGSTQYSPSLKSRVTISVDTSKNQFSLKLSSVTAADTAVYYCARPPGYYGFGPYALDYWGQGTLVTVSS
VL: DIQMTQSPSSLSASVGDRVTITCSASSSVSYIHWYQQKPGKAPKLLIYTTSYLAHGVPSRFSGSGSGTDFTLTISSLQPEDFATYYCQQRSTLPPTFGGGTKVEIKR
notes: Humanized full antibody with kappa light chain and modified human IgG4 Fc
< 50 nM: all assays above

B3: Antibody of example 3 (Ab3) (antibody, human IgG4 S228P, kappa, F234A L235A, V domains shown)
VH: QVQLQESGPGLVKPSETLSLTCTVSGDDITSGYWDWIRQPPGKGLEWIGYISYSGSTYYSPSLKSRVTISVDTSKNQFSLKLSSVTAADTAVYYCARPPGYYGFGPYALDYWGQGTLVTVSS
VL: DIQMTQSPSSLSASVGDRVTITCSASSSVSYIHWYQQKPGKAPKLLIYTTSYLAHGVPSRFSGSGSGTDFTLTISSLQPEDFATYYCLQRSTLPPTFGGGTKVEIKR
notes: as for B2
< 50 nM: all assays above

B4: Antibody of example 1 (Ab1) (antibody, human IgG4 S228P, kappa, F234A L235A, V domains shown)
VH: QVQLQESGPGLVKPSETLSLTCTVSGDDITSGYWDWIRQPPGKGLEWIGYISYSGSTYYSPSLKSRVTISVDTSKNQFSLKLSSVTAADTAVYYCARPPGYYGFGPYALDYWGQGTLVTVSS
VL: DIQMTQSPSSLSASVGDRVTITCSASSSVSYMHWYQQKPGKAPKLLIYTTSNLAHGVPSRFSGSGSGTDFTLTISSLQPEDFATYYCQWRSTLPPTFGGGTKVEIKR
notes: as for B2
< 50 nM: all assays above

B5: Fab fragment of antibody example 5 (Fab, V domains shown)
VH: QVQLQESGPGLVKPSETLSLTCTVSGDDITSGYHDWIRQPPGKGLEWIGYISYSGSTQYSPSLKSRVTISVDTSKNQFSLKLSSVTAADTAVYYCARPPGYYGFGPYALDYWGQGTLVTVSS
VL: DIQMTQSPSSLSASVGDRVTITCSASSSVSYIHWYQQKPGKAPKLLIYTTSYLAHGVPSRFSGSGSGTDFTLTISSLQPEDFATYYCQQRSTLPPTFGGGTKVEIKR
notes: Expressed in E. coli; Fab = VL+CL and VH+CH1 (Fc absent); also called Fab of Ab5; not shown: His tag
< 50 nM: all assays above

B6: Antibody of example 6 (Ab6) (antibody, human IgG4 S228P, kappa, F234A L235A, V domains shown)
VH: QVQLQESGPGLVKPSETLSLTCTVSGDDITSGYHDWIRQPPGKGLEWIGYISYSGSTYYSPSLKSRVTISVDTSKNQFSLKLSSVTAADTAVYYCARPPAYYGFGPYALDYWGQGTLVTVSS
VL: DIQMTQSPSSLSASVGDRVTITCSASSSVSYIHWYQQKPGKAPKLLIYTTSYLAHGVPSRFSGSGSGTDFTLTISSLQPEDFATYYCQQRSTLPPTFGGGTKVEIKR
notes: as for B2
< 50 nM: all assays above

B7: Antibody of example 2 (Ab2) (antibody, human IgG4 S228P, kappa, F234A L235A, V domains shown)
VH: QVQLQESGPGLVKPSETLSLTCTVSGDDITSGYWNWIRQPPGKGLEWIGYISYSGSTYYIPSLKSRVTISVDTSKNQFSLKLSSVTAADTAVYYCARPPGYYGFGPYAMDYWGQGTLVTVSS
VL: DIQMTQSPSSLSASVGDRVTITCSYSSSVSYMHWYQQKPGKAPKLLIYTTSNLAHGVPSRFSGSGSGTDFTLTISSLQPEDFATYYCQQRSTLPPTFGGGTKVEIKR
notes: as for B2
< 50 nM: all assays above

B8: Antibody of example 7 (Ab7) (antibody, human IgG4 S228P, kappa, F234A L235A, V domains shown)
VH: QVQLQESGPGLVKPSETLSLTCTVSGDDITSGYHEWIRQPPGKGLEWIGYISYSGSTSYSPSLKSRVTISVDTSKNQFSLKLSSVTAADTAVYYCARPPAYYGFGPYALDYWGQGTLVTVSS
VL: DIQMTQSPSSLSASVGDRVTITCSASSSVSYIHWYQQKPGKAPKLLIYTTSYLAHGVPSRFSGSGSGTDFTLTISSLQPEDFATYYCQQRSTLPPTFGGGTKVEIKR
notes: as for B2
< 50 nM: all assays above

B9: Fab fragment of antibody example 2 (Fab, V domains shown)
VH: QVQLQESGPGLVKPSETLSLTCTVSGDDITSGYWNWIRQPPGKGLEWIGYISYSGSTYYIPSLKSRVTISVDTSKNQFSLKLSSVTAADTAVYYCARPPGYYGFGPYAMDYWGQGTLVTVSS
VL: DIQMTQSPSSLSASVGDRVTITCSYSSSVSYMHWYQQKPGKAPKLLIYTTSNLAHGVPSRFSGSGSGTDFTLTISSLQPEDFATYYCQQRSTLPPTFGGGTKVEIKR
notes: Expressed in E. coli; Fab = VL+CL and VH+CH1 (Fc absent); also called Fab of Ab2; not shown: His tag
< 50 nM: all assays above

B10: Fab fragment of antibody example 7 (Fab, V domains shown)
VH: QVQLQESGPGLVKPSETLSLTCTVSGDDITSGYHEWIRQPPGKGLEWIGYISYSGSTSYSPSLKSRVTISVDTSKNQFSLKLSSVTAADTAVYYCARPPAYYGFGPYALDYWGQGTLVTVSS
VL: DIQMTQSPSSLSASVGDRVTITCSASSSVSYIHWYQQKPGKAPKLLIYTTSYLAHGVPSRFSGSGSGTDFTLTISSLQPEDFATYYCQQRSTLPPTFGGGTKVEIKR
notes: Expressed in E. coli; Fab = VL+CL and VH+CH1 (Fc absent); also called Fab of Ab7; not shown: His tag
< 50 nM: all assays above

B11: Fab fragment of antibody example 6 (Fab, V domains shown)
VH: QVQLQESGPGLVKPSETLSLTCTVSGDDITSGYHDWIRQPPGKGLEWIGYISYSGSTYYSPSLKSRVTISVDTSKNQFSLKLSSVTAADTAVYYCARPPAYYGFGPYALDYWGQGTLVTVSS
VL: DIQMTQSPSSLSASVGDRVTITCSASSSVSYIHWYQQKPGKAPKLLIYTTSYLAHGVPSRFSGSGSGTDFTLTISSLQPEDFATYYCQQRSTLPPTFGGGTKVEIKR
notes: Expressed in E. coli; Fab = VL+CL and VH+CH1 (Fc absent); also called Fab of Ab6; not shown: His tag
< 50 nM: all assays above

B12: Fab fragment of antibody example 3 (Fab, V domains shown)
VH: QVQLQESGPGLVKPSETLSLTCTVSGDDITSGYWDWIRQPPGKGLEWIGYISYSGSTYYSPSLKSRVTISVDTSKNQFSLKLSSVTAADTAVYYCARPPGYYGFGPYALDYWGQGTLVTVSS
VL: DIQMTQSPSSLSASVGDRVTITCSASSSVSYIHWYQQKPGKAPKLLIYTTSYLAHGVPSRFSGSGSGTDFTLTISSLQPEDFATYYCLQRSTLPPTFGGGTKVEIKR
notes: Expressed in E. coli; Fab = VL+CL and VH+CH1 (Fc absent); also called Fab of Ab3; not shown: His tag
< 50 nM: all assays above
